According to patent publication US20150148405A1 (Johns Hopkins, published 2015):

Target: ribosomal protein S6 (RPS6) (mouse, UniProt P62754 1-249)
Test: co-immunoprecipitation with GW182 antiserum from hippocampal neuron lysates, immunoblot
Procedure: Proteins and mRNAs associated with P-body component GW182 were isolated through immunoprecipitation of GW182 by modification of previously published protocols (Keene et al., 2006; Moser et al., 2009). Primary cultures of mouse hippocampal neurons (DIV 14-15) were incubated in serum-reduced medium (0.5% B27 supplement) for 2 hours, followed by […] Actinomycin-D for […] and mock or BDNF-stimulation for 30˜60 min. Cell lysates were harvested in polysomal lysis buffer (100 mM KCl, 5 mM MgCl₂, 10 mM HEPES pH 7.0, 0.5% NP-40) with protease inhibitor cocktail and freshly added 20 mM EDTA, 1 mM DTT, 100 U/mL RNase inhibitor (RNaseOut, Invitrogen) and 400 μM Vanadyl ribonucleoside complexes (SIGMA). Lysates were centrifuged and the supernatants pre-cleared by one-hour incubation with recombinant protein G beads pre-washed in NT2 buffer (50 mM Tris-HCl pH 7.4, 150 mM NaCl, 1 mM MgCl₂, 0.05% NP-40). Antibody coating of protein G beads was carried out with antiserum against GW182 (18033, gift of M. Fritzler) or control isotype-specific serum in NT2 buffer plus protease inhibitor for 4 hours after blocking with NT2 buffer plus 5% BSA and 1 mg/mL heparin for 1 hour. For immunoprecipitation (IP), equal amounts of lysate protein (2-5 mg) was incubated with antibody-coated beads and tumbled for 4 hours at 4° C., followed by washing. […]

B1: GW182 (other)
chain: MRELEAKATKDVERNLSRDLVQEEEQLMEEKKKKKDDKKKKEAAQKKATEQKIKVPEQIKPSVSQPQPANSDNGTSTATSTNNNAKRATASNQQPPPPQQQQPQQEQQQQQPQALPRYPREVPPRFRHQEHKQLLKRGQHFPVIAANLGSAVKVLNSQSESSAVTNQQPQNNGEVQNSKSQSDINHNTSGSHYENCQRGPVSSTSDCSTSCKNAVNDLLEKEAWPSAPGSDPELAPECIDADSASNSESERNITVMASGNTGGEKDGLRNSTGLGSQSKFVVGSSSNNVGHGSSTGPWGFPHGALISTCQVSVDAPESKPESSNNRMNAWGTVSSSSNGGLNPSTLNSASNHGAWPVLENNGLALKGPVGSGSSGINIQCSTIGQMPNNQNINSKVSGSSTHGTWGSLQETCEPEVSGTQKVSFSGQPQNITTETTGPNNTTNFMTSSLPNSGSVQNNELPTSNPGAWRVSTMNHPQIQAPSVMNGTSLSHLSNGESKTGGSYGTTWGAYGSNYSGDKCAGPNGQANGDTVNATLMQPGINGPMGTNFQVNTNKGGGVWEPGTVNSQSSPWGSGNGANSGGSRRGWGSPAQNTGTGLSSVEWNKLPSNQHSNDSANGNGKKLTNGWKSTEEDDQGSATSQTNEQNSVWAKAGGTVESDGSAESTGRLEEKVTGESQSRDRRKIDQHTLLQSIVNRTDLDPRVLSNSGWGQTPIKQNTAWDTETSPRGERKTDNGTEAWGSSATQTFNSGACTDKTSPNSNDTSSVSGWGDPKPTLRWGDSKGSNCQGGWEDDSAATGMIKSNQWGGCKEDKSTWNDSQKSKQGWGDGQKSSQGWSISAGDNWGESSRSNHWGEANKKSSSGGSDSDRSISGWNELGKTSSFTWGNNINPNNSSGWDESSKPNSSQGWGDPPKCNQSLGWGDSSKPVSSPDWNKQQDIVGSWGIPPATSKPPGTGWLGGPIPAPAKEEEPTGWEEPSPESIRRKMEIDDGTSAWGDPSKYNYKNVNMWNKNIPEASGRSDQQAQMHRLLPAASAVSSKETSSGSGWGEPWAEPSTPATTVDNGTSAWGKPIDSGPSWGEPITAASNASTWGSSSVGPQSLSKSGPKSMQDGWCGDDMPLPGSRPTGWEEEEDVEIGMWNSNSSQELNSSLNWPPYTKKMSSKGLSGKKRRRERGMMKGGNKQEDAWINPFVKQFSNISFSRDSPEENVQSNKMDLSGGMLQDKRMEIDKHSLNIGDYNRTVGKGPGSRPQISKESSMERNPYFDKNGNPNMFGVGNTAAQPRGMQQPPAQPLSSSQPNLRAQVPPPLLSPQVPVSLLKYAPNNGGLNPLFGPQQVAMLNQLSQLNQLSQISQLQRLLAQQQRAQSQRSAPSANRQQQDQQGRPLSVQQQMMQQSRQLDPSLLVKQQTPPSQQPLHQPAMKSFLDNVMPHTTPELQKGPSPVNAFSNFPIGLNSNLNVNMDMNSIKEPQSRLRKWTTVDSMSVNTSLDQNSSKHGAISSGFRLEESPFVPYDFMNSSTSPASPPGSIGDGWPRAKSPNGSSSVNWPPEFRPGEPWKGYPNIDPETDPYVTPGSVINSLSINTVREVDHLRDRNSGSSSSLNTTLPSTSAWSSIRASNYNVPLSSTAQSTSARNSDSKLTWSPGSVTNTSLAHELWKVPLPPKNITAPSRPPPGLTGQKPPLSTWDNSPLRVGGGWGNSDARYTPGSSWGESSSGRITNWLVLKNLTPQIDGSTLRTLCMQHGPLITFHLNLPHGNALVRYSSKEEVVKAQKSLHMCVLGNTTILAEFASEEEISRFFAQSQSLTPSPGWQSLGSSQSRLGSLDCSHSFSSRTDVNHWNGAGLSGANCGDLHGTSLWGTPHYSTSLWGPPSSDPRGISSPSPINAFLSVDHLGGGGESM
notes: Endogenous protein pulled down from neuronal lysate with GW182 antiserum 18033 (gift of M. Fritzler) on protein G beads; also called TNRC6a; P-body component GW182
binding result: no binding
